The values that follow come from paper PMC5548887.

The experiment concerns the target HHARI full-length (residues 1-557) (UniProt Q9Y4X5). As to the kind of experiment: ITC; nanoITC, 25 °C, 50 mM NaCl, 10 mM Na2HPO4, 2 mM KH2PO4 pH 7.0; 200 μM UbcH7 proteins injected into 20 μM HHARI full length; 500 μM UbcH5b proteins into 50 μM HHARI full length. For orientation: In ITC the heat of successive injections is recorded.

Sequence of UbcH5b wild type (P62837 whole entry): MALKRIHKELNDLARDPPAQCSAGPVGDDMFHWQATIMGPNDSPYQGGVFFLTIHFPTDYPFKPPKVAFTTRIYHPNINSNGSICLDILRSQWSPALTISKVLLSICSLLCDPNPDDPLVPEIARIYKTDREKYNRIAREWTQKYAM
Sequence of HHARI full-length (residues 1-557) (Q9Y4X5 whole entry, the tested form may be a part): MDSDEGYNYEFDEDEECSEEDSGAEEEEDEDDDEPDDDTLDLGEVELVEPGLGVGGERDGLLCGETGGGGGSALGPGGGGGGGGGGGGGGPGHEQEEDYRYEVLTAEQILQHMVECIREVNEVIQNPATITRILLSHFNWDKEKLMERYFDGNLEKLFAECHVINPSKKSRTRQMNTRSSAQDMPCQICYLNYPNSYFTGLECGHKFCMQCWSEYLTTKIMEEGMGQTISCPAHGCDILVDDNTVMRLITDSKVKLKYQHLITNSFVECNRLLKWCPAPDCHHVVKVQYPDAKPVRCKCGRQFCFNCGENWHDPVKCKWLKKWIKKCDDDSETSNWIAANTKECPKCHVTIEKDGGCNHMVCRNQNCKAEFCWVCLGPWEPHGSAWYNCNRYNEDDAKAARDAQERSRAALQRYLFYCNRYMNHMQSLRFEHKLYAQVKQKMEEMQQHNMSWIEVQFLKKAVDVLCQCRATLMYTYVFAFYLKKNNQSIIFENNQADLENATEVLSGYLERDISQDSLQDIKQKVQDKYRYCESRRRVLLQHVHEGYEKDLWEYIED

In turn, “UbcH5b wild type (from UniProt P62837 1-147) (enzyme; other documents disagree on this pair)” yielded a Kd of 19.5 µM.

As usually defined, the Kd is the equilibrium constant for the complex coming apart. A low value points to a tighter complex.
